# Assay results published in the supplement of paper PMC9112550, “Optimization of the antimicrobial peptide Bac7 by deep mutational scanning” (BMC Biology, 2022).
# System: Escherichia coli TOP10
# Test: shrunken log2 fold change of peptide-encoding DNA abundance (4.5 h post-induction vs induction); higher = less antimicrobial activity (less host growth inhibition)
# Details: time post-induction: 4.5 h; library: site-saturation at positions 5, 18, 19, 20
# 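Note: peptides expressed intracellularly from a pBAD plasmid library in pooled LB shake-flask culture, induced with 0.3% L-arabinose, DNA abundance read by NGS, three biological replicates, DESeq2 with apeglm shrinkage.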
row,Sequence,shrunken log2 fold change
1,RRIRGRPPRLPRPRPRPGMQPRP,1.15
2,RRIRYRPPRLPRPRPRPLNEPRP,-0.0438
3,RRIRHRPPRLPRPRPRPSFQPRP,-0.652
4,RRIRSRPPRLPRPRPRPQNYPRP,-0.322
5,RRIRWRPPRLPRPRPRPHFNPRP,-0.333
6,RRIRSRPPRLPRPRPRPGFMPRP,-0.101
7,RRIRPRPPRLPRPRPRPKQRPRP,0.186
8,RRIRHRPPRLPRPRPRPLVRPRP,-0.103
9,RRIRFRPPRLPRPRPRPWGLPRP,-0.168
10,RRIRRRPPRLPRPRPRPSHNPRP,-0.379
11,RRIRPRPPRLPRPRPRPNTPPRP,-0.153
12,RRIRWRPPRLPRPRPRPCMVPRP,-0.155
13,RRIRSRPPRLPRPRPRPTLMPRP,0.091
14,RRIRIRPPRLPRPRPRPCHFPRP,-0.131
15,RRIRIRPPRLPRPRPRPQFGPRP,1.74
16,RRIRVRPPRLPRPRPRPQVFPRP,-0.0729
17,RRIRLRPPRLPRPRPRPHKPPRP,0.119
18,RRIRTRPPRLPRPRPRPYGSPRP,-0.154
19,RRIRARPPRLPRPRPRPWQHPRP,0.0196
20,RRIRRRPPRLPRPRPRPTMVPRP,0.283
21,RRIRWRPPRLPRPRPRPCVMPRP,0.0583
22,RRIRPRPPRLPRPRPRPLQGPRP,0.13
23,RRIRDRPPRLPRPRPRPNQIPRP,-0.044
24,RRIRPRPPRLPRPRPRPGGVPRP,0.567
25,RRIRHRPPRLPRPRPRPVHDPRP,0.079

row,Sequence,shrunken log2 fold change
1,RRIRLRPPRLPRPRPRPYNKPRP,1.41
2,RRIRHRPPRLPRPRPRPMCAPRP,-0.446
3,RRIRNRPPRLPRPRPRPRVKPRP,0.139
4,RRIRVRPPRLPRPRPRPQDKPRP,-0.603
5,RRIRHRPPRLPRPRPRPFRLPRP,-0.322
6,RRIRYRPPRLPRPRPRPQTTPRP,-0.0405
7,RRIRSRPPRLPRPRPRPSNPPRP,-0.257
8,RRIRCRPPRLPRPRPRPCMIPRP,-0.23
9,RRIRDRPPRLPRPRPRPTLPPRP,-0.027
10,RRIRTRPPRLPRPRPRPPNVPRP,-0.201
11,RRIRHRPPRLPRPRPRPCSIPRP,-0.0189
12,RRIRKRPPRLPRPRPRPNCFPRP,0.274
13,RRIRWRPPRLPRPRPRPCTNPRP,-0.0757
14,RRIRYRPPRLPRPRPRPCGMPRP,-0.217
15,RRIRFRPPRLPRPRPRPHQTPRP,0.0857
16,RRIRLRPPRLPRPRPRPILAPRP,-0.0814
17,RRIRARPPRLPRPRPRPWEWPRP,0.0233
18,RRIRPRPPRLPRPRPRPQDMPRP,-0.39
19,RRIRCRPPRLPRPRPRPWSGPRP,-0.0937
20,RRIRWRPPRLPRPRPRPFFYPRP,0.0746
21,RRIRTRPPRLPRPRPRPGGTPRP,-0.00579
22,RRIRGRPPRLPRPRPRPCAHPRP,0.251
23,RRIRCRPPRLPRPRPRPVRAPRP,0.486
24,RRIRRRPPRLPRPRPRPEADPRP,0.774
25,RRIRERPPRLPRPRPRPIHFPRP,-0.00865

row,Sequence,shrunken log2 fold change
1,RRIRPRPPRLPRPRPRPTYSPRP,-0.104
2,RRIRRRPPRLPRPRPRPWFYPRP,-0.00712
3,RRIRGRPPRLPRPRPRPLNQPRP,0.725
4,RRIRDRPPRLPRPRPRPELYPRP,1.13
5,RRIRCRPPRLPRPRPRPERDPRP,0.325
6,RRIRFRPPRLPRPRPRPEHQPRP,-0.1
7,RRIRDRPPRLPRPRPRPECDPRP,1.39
8,RRIRFRPPRLPRPRPRPCCCPRP,0.0783
9,RRIRLRPPRLPRPRPRPTGWPRP,0.303
10,RRIRYRPPRLPRPRPRPCGSPRP,0.00387
11,RRIRHRPPRLPRPRPRPYILPRP,-0.576
12,RRIRGRPPRLPRPRPRPIKYPRP,0.00555
13,RRIRQRPPRLPRPRPRPYDTPRP,-0.307
14,RRIRWRPPRLPRPRPRPIPNPRP,-0.262
15,RRIRQRPPRLPRPRPRPPDDPRP,-0.308
16,RRIRVRPPRLPRPRPRPDEHPRP,0.0107
17,RRIRMRPPRLPRPRPRPMEHPRP,0.0124
18,RRIRKRPPRLPRPRPRPDDLPRP,0.0928
19,RRIRMRPPRLPRPRPRPNNRPRP,-0.0376
20,RRIRMRPPRLPRPRPRPQKYPRP,0.136
21,RRIRMRPPRLPRPRPRPLKAPRP,0.541
22,RRIRPRPPRLPRPRPRPCYMPRP,-1.12
23,RRIRPRPPRLPRPRPRPKRIPRP,-0.155
24,RRIRMRPPRLPRPRPRPWGAPRP,0.698
25,RRIRMRPPRLPRPRPRPKLCPRP,0.438

row,Sequence,shrunken log2 fold change
1,RRIRIRPPRLPRPRPRPPWDPRP,0.0808
2,RRIRGRPPRLPRPRPRPSTMPRP,0.21
3,RRIRPRPPRLPRPRPRPKFRPRP,-0.122
4,RRIRPRPPRLPRPRPRPWCFPRP,-0.295
5,RRIRGRPPRLPRPRPRPNGDPRP,0.115
6,RRIRMRPPRLPRPRPRPLRVPRP,1.14
7,RRIRNRPPRLPRPRPRPIPTPRP,-0.0847
8,RRIRNRPPRLPRPRPRPRDWPRP,0.0384
9,RRIRLRPPRLPRPRPRPRGPPRP,0.865
10,RRIRERPPRLPRPRPRPLRKPRP,0.722
11,RRIRRRPPRLPRPRPRPQMMPRP,-0.232
12,RRIRIRPPRLPRPRPRPTDRPRP,-0.192
13,RRIRDRPPRLPRPRPRPMVGPRP,0.564
14,RRIRYRPPRLPRPRPRPLVDPRP,-0.289
15,RRIRIRPPRLPRPRPRPDWPPRP,0.0262
16,RRIRNRPPRLPRPRPRPVMVPRP,-0.0209
17,RRIRVRPPRLPRPRPRPWYLPRP,-0.425
18,RRIRKRPPRLPRPRPRPNYFPRP,-0.303
19,RRIRMRPPRLPRPRPRPDWKPRP,0.0125
20,RRIRTRPPRLPRPRPRPHNFPRP,-0.0359
21,RRIRIRPPRLPRPRPRPYYRPRP,-0.105
22,RRIRPRPPRLPRPRPRPITQPRP,-0.194
23,RRIRGRPPRLPRPRPRPGRMPRP,0.727
24,RRIRQRPPRLPRPRPRPDMTPRP,-0.129
25,RRIRIRPPRLPRPRPRPCCTPRP,-0.482

row,Sequence,shrunken log2 fold change
1,RRIRKRPPRLPRPRPRPDRNPRP,0.158
2,RRIRWRPPRLPRPRPRPNNCPRP,0.00476
3,RRIRNRPPRLPRPRPRPFGEPRP,-0.0176
4,RRIRMRPPRLPRPRPRPLYPPRP,-0.151
5,RRIRHRPPRLPRPRPRPTSNPRP,-0.448
6,RRIRCRPPRLPRPRPRPCCLPRP,-0.35
7,RRIRRRPPRLPRPRPRPLTSPRP,0.233
8,RRIRSRPPRLPRPRPRPDYMPRP,-0.355
9,RRIRRRPPRLPRPRPRPLDTPRP,0.168
10,RRIRRRPPRLPRPRPRPNPKPRP,0.172
11,RRIRHRPPRLPRPRPRPKGMPRP,-0.448
12,RRIRVRPPRLPRPRPRPHTNPRP,-0.471
13,RRIRLRPPRLPRPRPRPWAPPRP,1.18
14,RRIRIRPPRLPRPRPRPAVSPRP,-0.0873
15,RRIRCRPPRLPRPRPRPYYSPRP,-0.437
16,RRIRERPPRLPRPRPRPWKPPRP,-0.00455
17,RRIRWRPPRLPRPRPRPQEQPRP,0.0647
18,RRIRGRPPRLPRPRPRPFKKPRP,0.0278
19,RRIRGRPPRLPRPRPRPHAWPRP,0.595
20,RRIRMRPPRLPRPRPRPFERPRP,0.122
21,RRIRPRPPRLPRPRPRPWSEPRP,-0.0275
22,RRIRWRPPRLPRPRPRPDSAPRP,0.139
23,RRIRMRPPRLPRPRPRPKQCPRP,0.208
24,RRIRCRPPRLPRPRPRPCMEPRP,-0.681
25,RRIRTRPPRLPRPRPRPLINPRP,-0.692
